# B1: rmIL-12: recombinant murine Interleukin-12, heterodimeric cytokine, from Genetics Institute (protein, UniProt P43431 23-215; P43432 23-335, looked up)
# Interleukin-12 subunit alpha: RVIPVSGPARCLSQSRNLLKTTDDMVKTAREKLKHYSCTAEDIDHEDITRDQTSTLKTCLPLELHKNESCLATRETSSTTRGSCLPPQKTSLMMTLCLGSIYEDLKMYQTEFQAINAALQNHNHQQIILDKGMLVAIDELMQSLNHNGETLRQKPPVGEADPYRVKMKLCILLHAFSTRVVTINRVMGYLSSA
# Interleukin-12 subunit beta: MWELEKDVYVVEVDWTPDAPGETVNLTCDTPEEDDITWTSDQRHGVIGSGKTLTITVKEFLDAGQYTCHKGGETLSHSHLLLHKKENGIWSTEILKNFKNKTFLKCEAPNYSGRFTCSWLVQRNMDLKFNIKSSSSSPDSRAVTCGMASLSAEKVTLDQRDYEKYSVSCQEDVTCPTAEETLPIELALEARQQNKYENYSTSFFIRDIIKPDPPKNLQMKPLKNSQVEVSWEYPDSWSTPHSYFSLKFFVRIQRKKEKMKETEEGCNQKGAFLVEKTSTEVQCKGGNVCVQAQDRYYNSSCSKWACVPCRVRS
# Test system: allogeneic DTH responses
# Test: Delayed type hypersensitivity (DTH) assessment, footpad swelling after alloimmunization with HKB cells
# Type: in vivo, mice
# Experimental: A. C57BL/6 (H-2^b) mice were vaccinated with irradiated allogeneic HKB (H-2^a) cells suspended in PBS at 10^7 trypan blue-excluding cells/ml. Cells were irradiated with 6000 rads from a ^137Cs source, and mice were vaccinated with 10^6 cells s.c. (day 0). Mice were given rmIL-12 (Genetics Institute, Andover, Mass.) by intraperitoneal injection (ip) with 500 ng/day on days 0-4 and 7-11 (10 injections). Control mice received phosphate buffered saline (PBS) injections. The vaccinated mice received 1 mg of neutralizing anti-IFNγ (XMG6) and/or anti-TNFα (XT22) monoclonal antibodies (mAbs) on days −1, 3 and 7. Mice were subsequently assayed for delayed type hypersensitivity (DTH) and for mitogen and alloantigen stimulation of splenocytes as described below.
# The DTH assessment was performed as follows: For assessment of allogeneic DTH responses, mice were injected with 50 μl PBS containing 10^6 irradiated SCK cells in the right footpad and with 50 μl PBS in the left footpad. Footpad thickness measurements were taken just before injection and 24 hours later using a Starrett pocket gauge (Athol, Mass.). Data are presented as the difference in footpad swelling induced by SCK cells and by PBS.
# C57BL/6 mice genetically deficient for IFNγ (IFNγ^−/−) and wild-type C57BL/6 mice were vaccinated with 10^6 irradiated HKB cells and given 500 ng rmIL-12 or phosphate buffered saline (PBS) on days 0-4 and 7-11 or left unvaccinated. They were challenged with 10^6 irradiated SCK cells in the right foot, with PBS control injection in the left foot on day 12. The DTH responses were measured as described above in Part A.
# C. To examine the role of TNFα, SV129×C57BL/6 mice deficient for both p55 and p75 TNF receptors (TNFR^−/− mice) and control mice were vaccinated with 10^6 irradiated HKB cells and given 500 ng IL-12 or PBS on days 0-4 and 7-11. DTH assessment was performed on day 12, as described above in Part A.
# Footpad injections for DTH assessment were performed on day 12 as described above in the DTH assay. Swelling 24 hours later is presented as the mean (+S.E.) from 3 mice in each treatment group in FIG. 4A.
molecule,measurement,setting,value
B1,DTH responses,"IFNγR1−/− C57BL/6×SV129 mice and controls vaccinated with HKB cells, data not shown",suppressed DTH responses in control but not IFNγR1^−/− mice
same,DTH responses,"IFNγ−/− C57BL/6 mice vaccinated with HKB cells, rmIL-12 500 ng days 0-4 and 7-11",had no suppressive effect
same,DTH responses,"TNFR−/− (p55 and p75) SV129×C57BL/6 mice vaccinated with HKB cells, 500 ng days 0-4 and 7-11",depressed DTH responses like wild-type
same,DTH responses,"iNOS−/− C57BL/6 mice vaccinated with HKB cells, course of rmIL-12",at least as great as those of PBS-treated iNOS^−/− and wild-type mice
same,DTH responses,"wild-type C57BL/6 mice vaccinated with irradiated HKB cells, rmIL-12 500 ng/day ip days 0-4 and 7-11, challenge day 12",suppressed DTH responses to background levels

# From patent US6375944B1, “Methods and compositions for enhancing the immunostimulatory effect of interleukin-12” (The Wistar Institute of Anatomy and Biology, priority 1998, dated 2002)
